The data set deals with the molecule itself. The experiment in a line: low-temperature SDS-PAGE; aorta lysates of WT and LSP1-KO mice in NP40-based non-denaturing buffer (crude or after eNOS immunoprecipitation), not boiled, no reducing agent, 7% gel at 4 °C; anti-eNOS immunoblot; dimer to monomers. Background: A western blot detects proteins with antibodies after separation by electrophoresis.

As a reminder, the stoichiometry N is the number of molecules, sites or subunits per partner or assembly.

B1: endothelial nitric oxide synthase (eNOS), mouse, native (enzyme, mouse (endogenous in aorta), UniProt P70313 1-1202, looked up)
chain: MGNLKSVGQEPGPPCGLGLGLGLGLCGKQGPASPAPEPSQAPAPPSPTRPAPDHSPPLTRPPDGPRFPRVKNWEVGSITYDTLSAQAQQDGPCTSRRCLGSLVFPRKLQSRPTQGPSPTEQLLGQARDFINQYYNSIKRSGSQAHEQRLQEVEAEVAATGTYQLRESELVFGAKQAWRNAPRCVGRIQWGKLQVFDARDCRTAQEMFTYICNHIKYATNRGNLRSAITVFPQRCPGRGDFRIWNSQLIRYAGYRQQDGSVRGDPANVEITELCIQHGWTPGNGRFDVLPLLLQAPDEPPELFTLPPEMVLEVPLEHPTLEWFAALGLRWYALPAVSNMLLEIGGLEFPAAPFSGWYMSSEIGMRDLCDPHRYNILEDVAVCMDLDTRTTSSLWKDKAAVEINVAVLHSYQLAKVTIVDHHAATASFMKHLENEQKARGGCPADWAWIVPPISGSLTPVFHQEMVNYFLSPAFRYQPDPWKGSAAKGAGITRKKTFKEVANAVKISASLMGTVMAKRVKATILYGSETGRAQSYAQQLGRLFRKAFDPRVLCMDEYDVVSLEHEALVLVVTSTFGNGDPPENGESFAAALMEMSGPYNSSPRPEQHKSYKIRFNSVSCSDPLVSSWRRKRKESSNTDSAGALGTLRFCVFGLGSRAYPHFCAFARAVDTRLEELGGERLLQLGQGDELCGQEEAFRGWAQAAFQAACETFCVGEDAKAAARDIFSPKRSWKRQRYRLSTQAESLQLLPGLTHVHRRKMFQATILSVENLQSSKSTRATILVRLDTGGQEGLQYQPGDHIGVCPPNRPGLVEALLSRVEDPPPSTEPVAVEQLEKGSPGGPPPGWVRDPRLPPCTLRQALTYFLDITSPPSPRLLRLLSTLAEESSEQQELEALSQDPRRYEEWKWFSCPTLLEVLEQFPSVALPAPLILTQLPLLQPRYYSVSSAPSAHPGEIHLTIAVLAYRTQDGLGPLHYGVCSTWMSQLKAGDPVPCFIRGAPSFRLPPDPNLPCILVGPGTGIAPFRGFWQDRLHDIEIKGLQPAPMTLVFGCRCSQLDHLYRDEVLDAQQRGVFGQVLTAFSRDPGSPKTYVQDLLRTELAAEVHRVLCLEQGHMFVCGDVTMATSVLQTVQRILATEGGMELDEAGDVIGVLRDQQRYHEDIFGLTLRTQEVTSRIRTQSFSLQERQLRGAVPWSFDPPGPEIPGS
notes: mouse endothelial nitric oxide synthase, native protein of the aorta; dimer band at 260 kDa; Written as the protomer, for the row of the protein with itself; also called mouse eNOS; WT eNOS; source: endogenous, aorta lysate of 129/SvJ wild-type mice (also LSP1-KO mice)
As for B1, the “stoichiometry N” value came to 2.

Source of the values: article PMC10813790, “Lymphocyte-Specific Protein 1 Regulates Expression and Stability of Endothelial Nitric Oxide Synthase” (Biomolecules, 2024).
